In article PMC10699770 (Science Advances, 2023):

Biological target: full-length NAIP5 with an N-terminal Flag tag (mouse, UniProt Q9R016 1-1403)
Assay: cryo-EM structure

full-length NAIP5 with an N-terminal Flag tag, sequence (Q9R016 whole entry): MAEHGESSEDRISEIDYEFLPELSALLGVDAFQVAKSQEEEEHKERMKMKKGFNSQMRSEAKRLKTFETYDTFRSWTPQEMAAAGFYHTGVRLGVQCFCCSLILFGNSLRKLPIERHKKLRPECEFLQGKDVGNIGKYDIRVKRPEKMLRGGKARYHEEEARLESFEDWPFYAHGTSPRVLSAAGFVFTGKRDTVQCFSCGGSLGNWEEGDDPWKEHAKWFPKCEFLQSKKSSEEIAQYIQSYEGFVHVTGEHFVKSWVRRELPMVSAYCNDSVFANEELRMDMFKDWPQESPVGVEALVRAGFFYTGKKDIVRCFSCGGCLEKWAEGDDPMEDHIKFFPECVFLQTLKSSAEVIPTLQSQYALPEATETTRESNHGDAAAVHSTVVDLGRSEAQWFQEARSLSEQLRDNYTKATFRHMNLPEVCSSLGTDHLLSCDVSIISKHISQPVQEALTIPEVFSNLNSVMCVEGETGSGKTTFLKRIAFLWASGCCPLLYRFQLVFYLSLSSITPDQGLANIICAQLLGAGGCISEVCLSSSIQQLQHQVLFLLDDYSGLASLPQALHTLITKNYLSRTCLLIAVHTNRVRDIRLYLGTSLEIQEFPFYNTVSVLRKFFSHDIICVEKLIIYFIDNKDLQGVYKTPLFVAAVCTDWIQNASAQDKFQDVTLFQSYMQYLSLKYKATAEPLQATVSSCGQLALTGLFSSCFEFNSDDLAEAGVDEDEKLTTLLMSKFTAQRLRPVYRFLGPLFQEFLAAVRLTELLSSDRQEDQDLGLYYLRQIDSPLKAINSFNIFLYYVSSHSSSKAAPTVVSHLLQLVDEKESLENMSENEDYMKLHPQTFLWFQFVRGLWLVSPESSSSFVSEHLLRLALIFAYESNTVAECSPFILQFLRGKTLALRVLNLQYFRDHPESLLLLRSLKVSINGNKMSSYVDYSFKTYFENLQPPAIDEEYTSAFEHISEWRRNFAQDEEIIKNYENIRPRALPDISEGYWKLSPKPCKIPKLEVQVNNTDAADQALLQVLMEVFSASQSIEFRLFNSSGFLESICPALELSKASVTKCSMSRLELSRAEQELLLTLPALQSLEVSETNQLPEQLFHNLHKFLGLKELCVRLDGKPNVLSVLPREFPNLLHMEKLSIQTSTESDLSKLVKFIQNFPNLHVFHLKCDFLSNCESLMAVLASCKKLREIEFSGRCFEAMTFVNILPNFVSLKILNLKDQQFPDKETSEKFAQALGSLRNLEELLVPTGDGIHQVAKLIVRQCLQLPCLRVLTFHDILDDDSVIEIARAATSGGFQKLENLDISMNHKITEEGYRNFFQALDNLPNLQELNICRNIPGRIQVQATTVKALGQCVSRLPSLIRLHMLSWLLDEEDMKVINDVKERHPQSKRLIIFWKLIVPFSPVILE

B1: full-length S. typhimurium flagellin FliC with N-terminal His tag (natural protein)
chain: MAQVINTNSLSLLTQNNLNKSQSALGTAIERLSSGLRINSAKDDAAGQAIANRFTANIKGLTQASRNANDGISIAQTTEGALNEINNNLQRVRELAVQSANSTNSQSDLDSIQAEITQRLNEIDRVSGQTQFNGVKVLAQDNTLTIQVGANDGETIDIDLKQINSQTLGLDTLNVQQKYKVSDTAATVTGYADTTIALDNSTFKASATGLGGTDQKIDGDLKFDDTTGKYYAKVTVTGGTGKDGYYEVSVDKTNGEVTLAGGATSPLTGGLPATATEDVKNVQVANADLTEAKAALTAAGVTGTASVVKMSYTDNNGKTIDGGLAVKVGDDYYSATQNKDGSISINTTKYTADDGTSKTALNKLGGADGKTEVVSIGGKTYAASKAEGHNFKAQPDLAEAAATTTENPLQKIDAALAQVDTLRSDLGAVQNRFNSAITNLGNTVNNLTSARSRIEDSDYATEVSNMSRAQILQQAGTSVLAQANQVPQNVLSLLR
  binding result: binds
